Data set [1] deals with T1, VRK1 (vaccinia-related kinase 1), recombinant (UniProt Q99986 1-396).
T1 sequence: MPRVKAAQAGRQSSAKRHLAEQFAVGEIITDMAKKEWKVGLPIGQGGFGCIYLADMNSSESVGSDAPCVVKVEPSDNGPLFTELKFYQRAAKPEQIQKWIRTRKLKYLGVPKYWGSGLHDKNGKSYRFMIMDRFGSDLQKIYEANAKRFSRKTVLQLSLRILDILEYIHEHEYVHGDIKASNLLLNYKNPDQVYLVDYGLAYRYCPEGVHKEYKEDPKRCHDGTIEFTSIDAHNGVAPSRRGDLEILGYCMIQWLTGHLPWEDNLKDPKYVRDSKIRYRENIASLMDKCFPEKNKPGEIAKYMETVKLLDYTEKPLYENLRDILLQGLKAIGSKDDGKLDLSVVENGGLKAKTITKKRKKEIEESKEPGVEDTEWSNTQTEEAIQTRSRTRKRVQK
In words: ELONA; 1 mM Mg2+; 10 mM sodium phosphate, 0.15 M NaCl, pH 7.5, 1 mM MgCl2, 0.2% BSA; 37 C, 1 h; aptamers denatured at 95 C 10 min then ice 10 min; VRK1 coated on plate (20 or 200 ng/well). The settings on record: protein: recombinant, tags: 6xHis, label: digoxigenin (5' when made with primer F5).

The target of data set [2] is T1, VRK1 (vaccinia-related kinase 1), …. In words: ELONA; 80 nM; at least twice control; 10 mM sodium phosphate, 0.15 M NaCl, pH 7.5, 1 mM MgCl2, 0.2% BSA; 37 C, 1 h; aptamers denatured at 95 C 10 min then ice 10 min; VRK1 coated on plate (20 or 200 ng/well). Conditions: protein: recombinant; tags: 6xHis; label: 5' digoxigenin on both chains; PCR duplex denatured at 95 C and cooled on ice.

Data set [3] shares this target. The experiment in a line: ELONA; 40 nM PCR-labeled chain; 10 mM sodium phosphate, 0.15 M NaCl, pH 7.5, 1 mM MgCl2, 0.2% BSA; 37 C, 1 h; aptamers denatured at 95 C 10 min then ice 10 min; VRK1 coated on plate (20 or 200 ng/well). The settings on record: protein: recombinant; tags: 6xHis; label: digoxigenin (5' when made with primer R5); no G-quadruplex (predicted).
Setting [4] is: possible two G-quadruplexes (predicted).

Here are results for 7 molecules from paper PMC8156982, “DNA Aptamers against Vaccinia-Related Kinase (VRK) 1 Block Proliferation in MCF7 Breast Cancer Cells”.

B1: apVRKF8 (V#F8) (ssDNA)
DNA: ACGCTCGGATGCCACTACAGGGAGGGGGGGGGAAAGTAAGCGGGGGGTCGGCGGCCTCATGGACGTGCTGGTGA
As for B1, the Kd in data set [1] (setting [4]) is 45.8 ± 5.01 nM.

B2: apVRK8 (F+R chains) (mixed)
DNA 1: B1 DNA
DNA 2: TCACCAGCACGTCCATGAGGCCGCCGACCCCCCGCTTACTTTCCCCCCCCCTCCCTGTAGTGGCATCCGAGCGT
For the molecule B2, the binding signal in data set [2] was above 2 fold over control.

B3: apVRK33 (F+R chains) (mixed)
DNA 1: ACGCTCGGATGCCACTACAGGTTGCGAGGTGGGGGGTGGGTAGGGTGGGAAGTGCCCTCATGGACGTGCTGGTGA
DNA 2: TCACCAGCACGTCCATGAGGGCACTTCCCACCCTACCCACCCCCCACCTCGCAACCTGTAGTGGCATCCGAGCGT
As to B3, the binding signal in data set [2] is above 2 fold over control.

B4: apVRKF33 (V#F33) (ssDNA)
DNA: B3 DNA 1
With B4, in data set [1] (setting [4]), the Kd is 129 ± 55.6 nM.

B5: apVRKR28 (V#R28) (ssDNA)
DNA: TCACCAGCACGTCCATGAGGCAAGAAACCCACCCACCGCCCCCATCCGCCGTCCCTGTAGTGGCATCCGAGCGT
Turning to B5, the binding result in data set [3] is recorded as “binds”.

B6: apVRKF28 (V#F28) (ssDNA)
DNA: ACGCTCGGATGCCACTACAGGGACGGCGGATGGGGGCGGTGGGTGGGTTTCTTGCCTCATGGACGTGCTGGTGA
For the molecule B6, in data set [1] (possible one G-quadruplex (predicted)), the Kd is 60.1 ± 7.05 nM.

B7: apVRK28 (F+R chains) (mixed)
DNA 1: B6 DNA
DNA 2: B5 DNA
On to B7, for which the binding signal in data set [2] was above 2 fold over control.
